Assay results published in paper PMC9784577, “Cross-Feeding and Enzymatic Catabolism for Mannan-Oligosaccharide Utilization by the Butyrate-Producing Gut Bacterium Roseburia hominis A2-183” (Microorganisms, 2022).

Legend:
[1] = target: α-galactosidase RhGal36A (Roseburia hominis A2-183); assay: native gel or EMSA; native-PAGE on 4-15% Mini-PROTEAN TGX precast gels, 30 min at 150 V, Native PAGE marker; size of the oligomer from the band's apparent mass against the monomer's mass
[2] = target: β-1,4 mannan-oligosaccharide phosphorylase RhMOP130A (Roseburia hominis A2-183); assay: as above

stoichiometry N [1] | stoichiometry N [2] | Substance
4 |  | α-galactosidase RhGal36A (enzyme)
 | 6 | β-1,4 mannan-oligosaccharide phosphorylase RhMOP130A (enzyme)
